In patent publication US20130136731:

Biological target: thrombin, P00734

B1: native tissue plasminogen activator (protein)
chain: SYQVICRDEKTQMIYQQHQSWLRPVLRSNRVEYCWCNSGRAQCHSVPVKSCSEPRCFNGGTCQQALYFSDFVCQCPEGFAGKCCEIDTRATCYEDQGISYRGTWSTAESGAECTNWNSSALAQKPYSGRRPDAIRLGLGNHNYCRNPDRDSKPWCYVFKAGKYSSEFCSTPACSEGNSDCYFGNGSAYRGTHSLTESGASCLPWNSMILIGKVYTAQNPSAQALGLGKHNYCRNPDGDAKPWCHVLKNRRLTWEYCDVPSCSTCGLRQYSQPQFRIKGGLFADIASHPWQAAIFAKHRRSPGERFLCGGILISSCWILSAAHCFQERFPPHHLTVILGRTYRVVPGEEEQKFEVEKYIVHKEFDDDTYDNDIALLQLKSDSSRCAQESSVVRTVCLPPADLQLPDWTECELSGYGKHEALSPFYSERLKEAHVRLYPSSRCTSQHLLNRTVTDNMLCAGDTRSGGPQANLHDACQGDSGGPLVCLNDGRMTLVGIISWGLGCGQKDVPGVYTKVTNYLDWIRDNMRP
clotting time assay (fibrin mesh formation): fibrin mesh formation in presence or absence of native tPA up to high micro molar concentrations was essentially unaltered compared to buffer controls
